Experimental data: patent US20020015966A1, “Effector-specific protein assembly and uses thereof” (priority 2000, published 2002)

Experiments:
ER-α = test: mammalian two-hybrid assay of ER-α helix 1-LBD interaction; type: cell-based; settings: HepG2 cells, G5E1B-Luc reporter
Text: Shown are mammalian two-hybrid assays of Gal fusions containing helix 1 of ER-α with VP16 fusions of the ER LBD containing or lacking helix 1. HepG2 cells were cotransfected with G5E1B-Luc reporter, the appropriate combination of the expression vectors, and a ligand or vehicle. “E2” denotes estradiol; “4HT” denotes 4-hydroxy tamoxifen; and “ICI” denotes ICI-172,780.
HepG2 cells were maintained in Dulbecco's modified Eagle medium supplemented with 10% fetal calf serum. For transfection the cells were plated the day before into 24-well dishes at density 10^5 cells/well in DMEM supplemented with 10% charcoal-stripped serum. Transfections were performed by the calcium phosphate co-precipitation method. […] The amount of DNA was adjusted to 500 ng total per well with pBluescript vector.
The cells were washed with PBS the next morning and fresh media containing the appropriate ligands was added. The cells were harvested 24 hours later and assayed for luciferase (Molecular Probes) and β-Galactosidase activity (Tropix) on an MLX luminometer. All experiments were performed at least twice in duplicate.

[1] = molecular target: T1, GST-TR hinge fusion / TR LBD (Homo sapiens, UniProt P10828); test: GST pulldown assay of GST-TR204-260 with in vitro translated TR236-461; type: binding; settings: peptide 10 and 100 μM
T1 construct: GST pulldown assay of GST-TR204-260 with in vitro translated TR236-461; made in house; host or cells: The GST fusion was made in E. coli BL21; The LBD fragment was translated in vitro
T1 sequence (P10828 236-461): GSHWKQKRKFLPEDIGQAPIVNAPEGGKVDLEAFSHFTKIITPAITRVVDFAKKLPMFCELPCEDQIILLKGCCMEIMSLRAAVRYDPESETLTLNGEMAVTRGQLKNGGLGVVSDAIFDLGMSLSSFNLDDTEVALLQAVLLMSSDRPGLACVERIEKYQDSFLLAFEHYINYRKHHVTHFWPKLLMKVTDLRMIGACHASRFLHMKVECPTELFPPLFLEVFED
T1 sequence (P10828 204-260 partner limits assumed): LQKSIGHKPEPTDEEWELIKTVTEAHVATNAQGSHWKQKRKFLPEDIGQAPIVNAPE
Text: FIGS. 5A and 5B illustrate that N-CoR enhances the hinge-LBD interaction in the absence of ligand. In FIG. 5A, HepG2 cells were cotransfected with Gal4-hinge and VP16-LBD fusions of TR (left panel), RAR (middle panel), or RXR (right panel) in the presence or absence of Gal-RIP13ΔN4 construct and treated with the corresponding ligands or vehicle alone. […] Wt and mutant peptides of N-CoR IDI (top and bottom panels, respectively) were included where indicated at concentrations of 10 (+) and 100 (++) μM.
The appropriate GST fusion constructs were induced with […] and coupled to glutathione beads (Sepharose, Pharmacia). Interactions were performed overnight at 4° C. in buffer containing 20 mM Hepes pH 7.6, 100 mM NaCl, 20% glycerol, 2 mg/ml BSA, 1 mM DTT, and various protease inhibitors. The beads were subsequently washed twice with the interaction buffer containing 0.05% Triton X-100 and once with 50 mM Tris-HCl pH 8. Ligands or peptides were included in the washes where appropriate. The bound proteins were eluted with 15 mM glutathione (Sigma) for 15 minutes at 37° C. and analyzed by SDS-PAGE and fluorography (Amplify, Amersham). The sequence of the N-CoR RID peptide was […].

TR 204-461 = molecular target: T2, TR 204-461 (Homo sapiens, UniProt P10828); test: protease digestion assay (trypsin) of TR LBD; type: biochemical; settings: in the absence of ligand; 1 mM peptide, trypsin 7 minutes at room temperature
T2 construct: Flag (N); made in house; host or cells: in vitro translation
T2 sequence (P10828 204-461): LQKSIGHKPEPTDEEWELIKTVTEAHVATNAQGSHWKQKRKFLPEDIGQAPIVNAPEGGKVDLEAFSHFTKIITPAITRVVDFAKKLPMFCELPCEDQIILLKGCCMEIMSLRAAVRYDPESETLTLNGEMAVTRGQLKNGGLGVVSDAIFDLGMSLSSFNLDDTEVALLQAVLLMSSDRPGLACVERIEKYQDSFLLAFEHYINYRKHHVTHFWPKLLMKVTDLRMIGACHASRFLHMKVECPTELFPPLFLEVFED
Protocol: The mixture was digested with trypsin for 7 minutes at room temperature and analyzed by SDS-PAGE.
Subsequently, wild-type or mutated N-CoR peptides were added to final concentrations of 1 mM, and the reaction mixtures was further incubated for 30 minutes on ice. BSA was added to the reactions with no peptides to supplement for equal protein concentration in all the reaction mixtures. Finally, […] of trypsin was added to the indicated tubes, and the protein digestion was performed at room temperature for 7 minutes. The reactions were stopped with the addition of SDS-sample buffer and boiling. The samples were run on a 15% SDS-gel that was then dried and exposed to film for 1 hour.

Substance	hinge-LBD interaction of ER-α (ER-α)	interaction between a GST-TR hinge fusion and the TR LBD ([1]; in the absence of ligand)	interaction between a GST-TR hinge fusion and the TR LBD ([1]; in the presence of ligand)	new protease resistant species with a lower molecular weight (TR 204-461)	stabilization of TR LBD fragment against trypsin digestion (TR 204-461)
4-hydroxy tamoxifen	stronger effect				
ASNLGEDIIKALMGSFDD [wild type NCoR RID I peptide]		strongly stimulated	did not affect	presence of a new protease resistant species	some apparent stabilization
